The experiment concerns the target MBP-PrLD (C-terminal half of FCA containing prion-like domains) (Arabidopsis). The experiment can be described thus: SEC-MALS.

Broadly, the stoichiometry N is the number of molecules, sites or subunits per partner or assembly. “MBP-PrLD (C-terminal half of FCA containing prion-like domains) (domain or fragment)”: the stoichiometry N is more than 100 molecules.

The record behind these values is publication doi:10.1101/2024.04.06.588283.
